This is an account of results in PMC7137648.

In assay [1] the target is C1q (Homo sapiens) (UniProt P02745). To be noted: cited from earlier work.
The target of assay [2] is complement protein C1q (human) (UniProt P02745). Briefly: SPR; N-glycosylation site mutants of SR-F1(20-421) with C1q (Figures S5A-C), n = 2; which partner was immobilised is not told in the text shown; apparent affinity. (In general: SPR reads the build-up and loss of mass on a sensor chip optically.)
For assay [3], the target named is C1q (Homo sapiens) (UniProt P02745). To be noted: cited from earlier work. The source holds these as a separate data set.

Where two headings read alike, the source gives them in different places.

Sequence of C1q (Homo sapiens) (P02745 23-245, chain 1 of 3): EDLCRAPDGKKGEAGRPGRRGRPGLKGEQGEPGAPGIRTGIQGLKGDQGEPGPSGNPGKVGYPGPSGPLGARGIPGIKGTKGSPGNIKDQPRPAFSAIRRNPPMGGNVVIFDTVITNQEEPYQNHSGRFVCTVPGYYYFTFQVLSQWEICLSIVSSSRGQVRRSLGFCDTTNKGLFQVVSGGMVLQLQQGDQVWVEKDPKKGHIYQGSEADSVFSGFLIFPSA
Sequence of C1q (Homo sapiens) (P02746 28-253, chain 2 of 3, further chain): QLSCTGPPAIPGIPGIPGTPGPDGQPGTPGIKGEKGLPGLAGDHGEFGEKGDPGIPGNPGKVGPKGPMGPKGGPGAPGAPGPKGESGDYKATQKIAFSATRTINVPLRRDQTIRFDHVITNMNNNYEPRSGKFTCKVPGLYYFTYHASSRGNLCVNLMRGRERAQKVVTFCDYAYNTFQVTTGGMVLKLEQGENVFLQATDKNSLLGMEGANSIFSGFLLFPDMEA
Sequence of C1q (Homo sapiens) (P02747 29-245, chain 3 of 3, further chain): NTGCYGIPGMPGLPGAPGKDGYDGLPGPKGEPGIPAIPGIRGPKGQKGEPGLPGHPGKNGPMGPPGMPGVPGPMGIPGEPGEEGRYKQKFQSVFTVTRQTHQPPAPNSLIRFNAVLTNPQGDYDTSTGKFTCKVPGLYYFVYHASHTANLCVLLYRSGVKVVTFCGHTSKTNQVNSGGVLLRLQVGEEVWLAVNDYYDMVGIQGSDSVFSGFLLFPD
Sequence of calreticulin (P27797 18-417): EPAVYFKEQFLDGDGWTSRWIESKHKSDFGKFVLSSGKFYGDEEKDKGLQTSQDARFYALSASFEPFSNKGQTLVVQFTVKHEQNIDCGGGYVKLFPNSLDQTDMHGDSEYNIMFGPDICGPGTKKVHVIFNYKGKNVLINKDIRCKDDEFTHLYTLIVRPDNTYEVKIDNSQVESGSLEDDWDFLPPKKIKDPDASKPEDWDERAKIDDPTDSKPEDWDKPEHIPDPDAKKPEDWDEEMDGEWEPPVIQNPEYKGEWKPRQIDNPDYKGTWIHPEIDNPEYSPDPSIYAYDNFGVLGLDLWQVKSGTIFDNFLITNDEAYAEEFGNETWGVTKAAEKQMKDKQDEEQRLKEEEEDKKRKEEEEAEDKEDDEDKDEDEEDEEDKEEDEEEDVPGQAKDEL
Sequence of complement protein C1q (human) (P02745 23-245, chain 1 of 3): as the sequence (P02745 23-245, chain 1 of 3) above
Sequence of complement protein C1q (human) (P02746 28-253, chain 2 of 3, further chain): as the sequence (P02746 28-253, chain 2 of 3, further chain) above
Sequence of complement protein C1q (human) (P02747 29-245, chain 3 of 3, further chain): as the sequence (P02747 29-245, chain 3 of 3, further chain) above
Sequence of SR-F1 ECD (Q14162 20-421): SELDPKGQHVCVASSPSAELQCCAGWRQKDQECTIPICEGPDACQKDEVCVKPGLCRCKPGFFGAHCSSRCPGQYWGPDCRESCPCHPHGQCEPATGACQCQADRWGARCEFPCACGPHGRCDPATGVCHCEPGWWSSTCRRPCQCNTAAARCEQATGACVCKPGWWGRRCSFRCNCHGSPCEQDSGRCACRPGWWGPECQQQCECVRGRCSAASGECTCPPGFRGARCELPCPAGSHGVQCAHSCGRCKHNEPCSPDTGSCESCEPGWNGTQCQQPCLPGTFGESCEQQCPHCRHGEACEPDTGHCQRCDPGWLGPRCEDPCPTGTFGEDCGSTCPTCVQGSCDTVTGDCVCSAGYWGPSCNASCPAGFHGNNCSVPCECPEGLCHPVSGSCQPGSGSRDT

For the substance SR-F1 ECD (from UniProt Q14162), the Kd in the assay with C1q (Homo sapiens) [1] is 124 nM.
As for “SR-F1(20-421) N289Q (from UniProt Q14162 20-421) (domain or fragment)”, the Kd in assay [2] stood at 581 nM.
With calreticulin (from UniProt P27797), the Kd in the assay with C1q (Homo sapiens) [3] is 120 nM.
